{
  "source": "patent US20130011868A1",
  "molecules": {"B1": {"name": "F1232-37-2 (antibody, from a related filing, V domains shown)", "VH": "VQLQQSGPELVRPGESVKISCKGSGYTFTDYAIHWVKLSHAKSLEWIGVISIYYDDTNYNQKFKGKATMTVDKSSSTAYLELARLTSEDSAIYYCARRRDSSGPYAMDYWGQGTSVTVSS", "VL": "DIVLTQSPASLAVSLGQRATISCRASESVDSYGNSFMHWYQQKPGQPPKLLIYRASNLESGIPARFSGSGSRTDFTLTINPVEADDVATYYCQQSNEDPYTFGGGTKLEIKR"}, "B2": {"name": "F1249-18-2 (antibody, from a related filing, V domains shown)", "VH": "QVQLQQPGAELVKPGASVKLSCKASGYTFTSYWMHWLKQRPGQGLEWIGMIHPNSDITNYNEKFKNKATLTVDKSSSTAYMQLSSLTSEDSAVYYCARSGDYYAMDYWGQGTSVTVSS", "VL": "SIVMTQTPKFLLVSAGDRVTITCKASQSVSNDVAWYQQKPGQSPKLLIYYASNRYTGVPDRFTGSGYGTDFTFTISTVQAEDLAVYFCQQDYSSPPTFGGGTKLEIKR"}, "B3": {"name": "F1245-7-1 (antibody, from a related filing, V domains shown)", "VH": "QVQLQQPGAELVKPGASVKLSCKASGYTFTSYWMHWVKQRPGQGLEWIGMIHPNSGSTNYNEKFKSKATLTVDKSSSTAYMQLSSLTSEDSAVYYCASPVTAVVEYYFDYWGQGTTLTVSS", "VL": "SIVMTQTPKFLLVSAGDRVTITCKASQSVSNDVAWYQQKPGQSPKLLIYYASNRYTGVPDRFTGSGYGTDFTFTISTVQAEDLAVYFCQQDYSSLTFGSGTKLEIKR"}, "B4": {"name": "F1246-1-1 (antibody, from a related filing, V domains shown)", "VH": "EVQLVESGGDLVKPGGSLKLSCAASGFTFSSYGMSWVRQTPDKRLEWVATISNGGTYTYYPDSVKGRFTISRDNAKNTLYLQMSSLKSDDTAMYYCGRLRDYYAMDYWGQGTSVTVSS", "VL": "B1 VL with Y100W"}, "B5": {"name": "F1249-5-1 (antibody, from a related filing, V domains shown)", "VH": "B2 VH with D73A, S99L", "VL": "B2 VL with A34T"}, "B6": {"name": "F1249-20-1 (antibody, from a related filing, V domains shown)", "VH": "QVQLQQSGAELVRPGVSVKISCKGSGYTFTDYAMHWVKQSHAKSLEWIGVISTYYGDTSYNQKFKGKATMTVDKSSSTAYMELARLTSEDSAIYYCARAEDYDPWFAYWGQGTLVTVSA", "VL": "B1 VL with H38Y, N96D, Y100L, G104A, I110L"}, "B7": {"name": "F1249-24-1 (antibody, from a related filing, V domains shown)", "VH": "B6 VH", "VL": "B1 VL with N96D, Y100L, G104A, I110L"}, "B8": {"name": "F1249-30-1 (antibody, from a related filing, V domains shown)", "VH": "B6 VH with T69A, E89D", "VL": "B1 VL with N96D, Y100L, G104A, I110L"}, "B9": {"name": "F1245-5-1 (antibody, from a related filing, V domains shown)", "VH": "QVQLQQPGAELVKPGASVKLSCKASGYTFISYWMHWVKQRPGQGLEWIGMIHPNSGSTHYNEKFKSKATLTVDKSSSTAYMQLSSLTSEDSAVYYCARGGVTPVAYWGQGTLVTVSA", "VL": "B2 VL with P96W"}, "B10": {"name": "F1245-6-2 (antibody, from a related filing, V domains shown)", "VH": "B9 VH with I30T, H59N", "VL": "B2 VL with D60Y, P96W"}, "B11": {"name": "F1249-3-2 (antibody, from a related filing, V domains shown)", "VH": "EVQLVESGGGLVKPGGSLKLSCAASGFTFSSYGMSWVRQTPDKRLEWVATISSGGSYTYYSDSVKGRFTISRDNAKNNLYLQLSSLKSQDTAIYYCARDSGYFDYWGQGTTLTVSS", "VL": "B1 VL with D1N, R54L, I62V, N80D, V87A, S95N, Y100R"}, "B12": {"name": "F1245-4-1 (antibody, from a related filing, V domains shown)", "VH": "QVQLQQPGAELVKPGASVKLSCKASGCTFTSYWMHWVKQRPGQGLEWIGMIHPNSDNTNYNEKFKSKATLTVDKSSSTAYMHLSSLTSEDSAVYYCATHYYDYVDYWGQGTTLTVSS", "VL": "B2 VL with S1N, P96W"}},
  "key": {"[1]": {"biological_target": "rat GPVI-hFc fusion protein (rat; mouse; human)", "sequence (P0C191 205-265)": "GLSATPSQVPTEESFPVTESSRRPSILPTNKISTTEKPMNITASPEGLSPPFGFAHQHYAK", "assay": "ELISA, immobilized rat GPVI-hFc, control"}, "[2]": {"biological_target": "hGPVI-mL9-hFc substituted mutant protein (human) (UniProt Q9HCN6)", "assay": "ELISA, immobilized hGPVI-mL9-hFc"}, "[3]": {"biological_target": "human GPVI-hFc fusion protein (human) (UniProt Q9HCN6)", "assay": "ELISA, immobilized hGPVI-hFc; +++ = absorbance greater than 2.0"}, "[4]": {"biological_target": "human GPVI-hFc fusion protein (human) (UniProt Q9HCN6)", "assay": "ELISA, immobilized hGPVI-hFc; ++ = absorbance 1.0 to 2.0"}, "[5]": {"biological_target": "human GPVI-hFc fusion protein (human) (UniProt Q9HCN6)", "assay": "ELISA, immobilized hGPVI-hFc; + = absorbance 0.5 up to 1.0"}},
  "note": "Positions count from the first letter of the chain named.",
  "data": [
    {"molecule": "normal mouse IgG (antibody)", "values": [
      {"measurement": "absorbance at 450 nm (absorbance 450 nm)", "setting": "[1]", "result": 0.123}
    ]},
    {"molecule": "B1", "values": [
      {"measurement": "absorbance at 450 nm (absorbance 450 nm)", "setting": "[1]", "result": 0.137},
      {"measurement": "absorbance", "setting": "[2]", "result": "< 0.5", "unit": "od"}
    ]},
    {"molecule": "B2", "values": [
      {"measurement": "absorbance", "setting": "[3]", "result": "> 2", "unit": "od"},
      {"measurement": "absorbance", "setting": "[2]", "result": "< 0.5", "unit": "od"}
    ]},
    {"molecule": "B3", "values": [
      {"measurement": "absorbance", "setting": "[4]", "result": "1 to 2", "unit": "od"},
      {"measurement": "absorbance", "setting": "[2]", "result": "< 0.5", "unit": "od"}
    ]},
    {"molecule": "B4", "values": [
      {"measurement": "absorbance", "setting": "[4]", "result": "1 to 2", "unit": "od"},
      {"measurement": "absorbance", "setting": "[2]", "result": "< 0.5", "unit": "od"}
    ]},
    {"molecule": "B5", "values": [
      {"measurement": "absorbance", "setting": "[4]", "result": "1 to 2", "unit": "od"},
      {"measurement": "absorbance", "setting": "[2]", "result": "< 0.5", "unit": "od"}
    ]},
    {"molecule": "B6", "values": [
      {"measurement": "absorbance", "setting": "[3]", "result": "> 2", "unit": "od"},
      {"measurement": "absorbance", "setting": "[2]", "result": "< 0.5", "unit": "od"}
    ]},
    {"molecule": "B7", "values": [
      {"measurement": "absorbance", "setting": "[3]", "result": "> 2", "unit": "od"},
      {"measurement": "absorbance", "setting": "[2]", "result": "< 0.5", "unit": "od"}
    ]},
    {"molecule": "B8", "values": [
      {"measurement": "absorbance", "setting": "[3]", "result": "> 2", "unit": "od"},
      {"measurement": "absorbance", "setting": "[2]", "result": "< 0.5", "unit": "od"}
    ]},
    {"molecule": "B9", "values": [
      {"measurement": "absorbance", "setting": "[4]", "result": "1 to 2", "unit": "od"},
      {"measurement": "absorbance", "setting": "[2]", "result": "< 0.5", "unit": "od"}
    ]},
    {"molecule": "B10", "values": [
      {"measurement": "absorbance", "setting": "[4]", "result": "1 to 2", "unit": "od"},
      {"measurement": "absorbance", "setting": "[2]", "result": "< 0.5", "unit": "od"}
    ]},
    {"molecule": "B11", "values": [
      {"measurement": "absorbance", "setting": "[5]", "result": "0.5 to 1", "unit": "od"},
      {"measurement": "absorbance", "setting": "[2]", "result": "< 0.5", "unit": "od"}
    ]},
    {"molecule": "B12", "values": [
      {"measurement": "absorbance", "setting": "[3]", "result": "> 2", "unit": "od"},
      {"measurement": "absorbance", "setting": "[2]", "result": "< 0.5", "unit": "od"}
    ]}
  ]
}
